# According to patent US20250066503A1, “CELL INJURY INDUCING THERAPEUTIC DRUG FOR USE IN CANCER THERAPY” (CHUGAI SEIYAKU KABUSHIKI KAISHA, priority 2016, published 2025):
# Biological target: T1, soluble human CD3 epsilon chain (human, UniProt P07766 23-126)
# T1 construct: also called CD3ε
# Experiment: SPR
# T1 sequence (P07766 23-126 limits assumed): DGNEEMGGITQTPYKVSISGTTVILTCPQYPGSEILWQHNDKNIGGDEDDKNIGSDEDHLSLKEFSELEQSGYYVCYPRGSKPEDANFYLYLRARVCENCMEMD
row,Kd [nM],Binder
1,80.1,"TR01H040-E22Hh/none-Hi-Kn010G3/L0226-k0 (antibody, V domains shown, one-arm) VH: QVQLVESGGGLVQPGRSLRLSCAASGFTFSNAWMHWVRQAPGKGLEWVAQIKDKSQNYATYYAESVKGRFTISRADSKNSIYLQMNSLKTEDTAVYYCRYVHYSASYGVDAWGQGTTVTVSS VL: DIVMTQSPLSLPVTPGEPASISCRSSQSPVHSNRNTYIHWYQQKPGQAPRLLIYKVSNRFSGVPDRFSGSGSGTDFTLKISRVEAEDVGVYYCIQGTQVPYTFGQGTKLEIK"
2,2.81,"TR01H040-E22Hh/none-Hi-Kn010G3/L0235-k0 (antibody, V domains shown, one-arm) VH: QVQLVESGGGLVQPGRSLRLSCAASGFTFSNAWMHWVRQAPGKGLEWVAQIKDKSQNYATYYAESVKGRFTISRADSKNSIYLQMNSLKTEDTAVYYCRYVHYSASYGVDAWGQGTTVTVSS VL: DIVMTQSPLSLPVTPGEPASISCRSSQEPVHSNRNTYLHWYQQKPGQAPRLLIYKVSNRFSGVPDRFSGSGSGTDFTLKISRVEAEDVGVYYCYQGTQVPYTFGQGTKLEIK"
3,16,"TR01H040-E22Hh/none-Hi-Kn010G3/L0228-k0 (antibody, V domains shown, one-arm) VH: QVQLVESGGGLVQPGRSLRLSCAASGFTFSNAWMHWVRQAPGKGLEWVAQIKDKSQNYATYYAESVKGRFTISRADSKNSIYLQMNSLKTEDTAVYYCRYVHYSASYGVDAWGQGTTVTVSS VL: DIVMTQSPLSLPVTPGEPASISCRSSQSPVHSNRNTYIHWYQQKPGQAPRLLIYKVSNRFSGVPDRFSGSGSGTDFTLKISRVEAEDVGVYYCVQGTQVPYTFGQGTKLEIK"
4,101,"TR01H040-E22Hh/none-Hi-Kn010G3/L0227-k0 (antibody, V domains shown, one-arm) VH: QVQLVESGGGLVQPGRSLRLSCAASGFTFSNAWMHWVRQAPGKGLEWVAQIKDKSQNYATYYAESVKGRFTISRADSKNSIYLQMNSLKTEDTAVYYCRYVHYSASYGVDAWGQGTTVTVSS VL: DIVMTQSPLSLPVTPGEPASISCRSSQSPVHSNRNTYIHWYQQKPGQAPRLLIYKVSNRFSGVPDRFSGSGSGTDFTLKISRVEAEDVGVYYCLQGTQVPYTFGQGTKLEIK"
5,24,"TR01H040-E22Hh/none-Hi-Kn010G3/L0234-k0 (antibody, V domains shown, one-arm) VH: QVQLVESGGGLVQPGRSLRLSCAASGFTFSNAWMHWVRQAPGKGLEWVAQIKDKSQNYATYYAESVKGRFTISRADSKNSIYLQMNSLKTEDTAVYYCRYVHYSASYGVDAWGQGTTVTVSS VL: DIVMTQSPLSLPVTPGEPASISCRSSQEPVHSNRNTYLHWYQQKPGQAPRLLIYKVSNRFRGVPDRFSGSGSGTDFTLKISRVEAEDVGVYYCGQGTQVPYTFGQGTKLEIK"
6,38.6,"TR01H040-E22Hh/none-Hi-Kn010G3/L0232-k0 (antibody, V domains shown, one-arm) VH: QVQLVESGGGLVQPGRSLRLSCAASGFTFSNAWMHWVRQAPGKGLEWVAQIKDKSQNYATYYAESVKGRFTISRADSKNSIYLQMNSLKTEDTAVYYCRYVHYSASYGVDAWGQGTTVTVSS VL: DIVMTQSPLSLPVTPGEPASISCRSSESLVHSNRNTYLHWYQQKPGQAPRLLIYKVSNRFSGVPDRFSGSGSGTDFTLKISRVEAEDVGVYYCGQGTQVPYTFGQGTKLEIK"
7,40.1,"TR01H040-E22Hh/none-Hi-Kn010G3/L0233-k0 (antibody, V domains shown, one-arm) VH: QVQLVESGGGLVQPGRSLRLSCAASGFTFSNAWMHWVRQAPGKGLEWVAQIKDKSQNYATYYAESVKGRFTISRADSKNSIYLQMNSLKTEDTAVYYCRYVHYSASYGVDAWGQGTTVTVSS VL: DIVMTQSPLSLPVTPGEPASISCRSSQELVHSNRNTYLHWYQQKPGQAPRLLIYKVSNRFSGVPDRFSGSGSGTDFTLKISRVEAEDVGVYYCGQGTQVPYTFGQGTKLEIK"
8,7.75,"TR01H040-E22Hh/none-Hi-Kn010G3/L0231-k0 (antibody, V domains shown, one-arm) VH: QVQLVESGGGLVQPGRSLRLSCAASGFTFSNAWMHWVRQAPGKGLEWVAQIKDKSQNYATYYAESVKGRFTISRADSKNSIYLQMNSLKTEDTAVYYCRYVHYSASYGVDAWGQGTTVTVSS VL: DIVMTQSPLSLPVTPGEPASISCRSSQSPVHSNRNTYIHWYQQKPGQAPRLLIYKVSNRFSGVPDRFSGSGSGTDFTLKISRVEAEDVGVYYCYQGTQWPYTFGQGTKLEIK"
